Assay results taken from patent US20240424115A1, “LONG-ACTING INTERLEUKIN-15 RECEPTOR AGONISTS AND RELATED IMMUNOTHERAPEUTIC COMPOSITIONS AND METHODS” (Nektar Therapeutics, priority 2017, published 2024).

System: YAC-1 cells
Type: cell-based
Procedure: NK cell-mediated cytotoxicity against target tumor cells was evaluated in vitro using a flow cytometry-based assay. NK cells were isolated from spleens of Balb/c mice using negative-selection magnetic cell isolation (Mouse NK cell enrichment kit, Stemcell Technologies) and used as effector cells. For in vitro studies, isolated NK cells were stimulated with Conjugate 1 at concentrations of 3000, 1000, 300, 30, 3, or 0 (unstimulated) ng/ml overnight in a humidified incubator at 37° C., 5% CO2 prior to use in the cytotoxicity assay. For in vivo studies, mice were dosed with 0.3 mg/kg Conjugate 1, and splenic NK cells were isolated 24, 48, and 72 h post-dose and used directly in the cytotoxicity assay.
YAC-1 T-cells labeled with PKH26 were used as target cells. To monitor NK cell cytotoxicity, NK and YAC-1 cells were co-cultured at various effector: target ratios (50:1, 25:1, and 12.5:1) for 4 hours at 37° C., 5% CO2, then stained with 7-AAD for 10 min to label dead cells. Cells were immediately analyzed using flow cytometry. Lysed target cells were identified as PKH26+7-AAD+.
Balb/c mice (n=2/group) were treated with Conjugate 1 (0.006, 0.03 or 0.3 mg/kg), IL-15 (1 mg/kg) or vehicle control. After treatment, spleens were isolated 24, 72, and 96 hours for NK cell isolation. […]

Substance: mono-mPEG-SBA40K-IL-15 [Conjugate 1]
- NK cytotoxicity (percent specific lysis of YAC-1 cells) after treatment of mice: elevation of NK cytotoxicity superior in magnitude and duration
